Reference: the Immune Epitope Database (IEDB)
pKd: −log10 of the molar value.

Tests used:
Test in all cases: IEDB peptide-MHC binding, purified MHC/competitive/radioactivity; filed as Kd, often an IC50 or EC50 that approximates it; ≥ and ≤ were set here for values at or beyond the usual limits of such assays
Settings in all cases: source organism: Influenza A virus
HLA-B*44:02 = target: HLA-B*44:02
HLA-B*44:03 = target: HLA-B*44:03
HLA-B*18:01 = target: HLA-B*18:01
HLA-B*40:02 = target: HLA-B*40:02
HLA-B*40:01 = target: HLA-B*40:01
HLA-B*45:01 = target: HLA-B*45:01
HLA-A*03:01 = target: HLA-A*03:01
HLA-A*11:01 = target: HLA-A*11:01
HLA-A*33:01 = target: HLA-A*33:01
HLA-A*31:01 = target: HLA-A*31:01
HLA-A*68:01 = target: HLA-A*68:01
HLA-A*02:01 = target: HLA-A*02:01
HLA-A*02:02 = target: HLA-A*02:02
HLA-A*02:06 = target: HLA-A*02:06
HLA-A*02:03 = target: HLA-A*02:03
HLA-A*68:02 = target: HLA-A*68:02
HLA-B*54:01 = target: HLA-B*54:01
HLA-B*51:01 = target: HLA-B*51:01
HLA-B*35:01 = target: HLA-B*35:01
HLA-B*53:01 = target: HLA-B*53:01
HLA-A*30:02 = target: HLA-A*30:02
HLA-A*24:02 = target: HLA-A*24:02
HLA-A*29:02 = target: HLA-A*29:02
HLA-A*23:01 = target: HLA-A*23:01
HLA-A*01:01 = target: HLA-A*01:01

Sequence: SEQAAEAMEV
- pKd (HLA-B*44:02): 5.58
- pKd (HLA-B*44:03): 5.12
- pKd (HLA-B*18:01): 5.72
- pKd (HLA-B*40:02): 7.07
- pKd (HLA-B*40:01): 5.57
- pKd (HLA-B*45:01): 7.46

Sequence: GTFEFTSFFY
- pKd (HLA-A*03:01): 7.80
- pKd (HLA-A*11:01): ≥ 9.00
- pKd (HLA-A*33:01): 5.27
- pKd (HLA-A*31:01): 6.62
- pKd (HLA-A*68:01): 7.00

Sequence: CLPACVYGL
- pKd (HLA-A*02:01): 7.10
- pKd (HLA-A*02:02): 8.40
- pKd (HLA-A*02:06): 7.02
- pKd (HLA-A*02:03): 6.84
- pKd (HLA-A*68:02): 5.42

Sequence: RLFFKCIYRR
- pKd (HLA-A*03:01): 6.87
- pKd (HLA-A*11:01): 6.53
- pKd (HLA-A*33:01): 6.62
- pKd (HLA-A*31:01): 8.30
- pKd (HLA-A*68:01): 7.06

Sequence: QEIRTFSFQL
- pKd (HLA-B*44:02): 6.99
- pKd (HLA-B*44:03): 6.37
- pKd (HLA-B*18:01): 6.29
- pKd (HLA-B*40:02): 7.17
- pKd (HLA-B*40:01): 6.87
- pKd (HLA-B*45:01): 6.42

Sequence: FQGRGVFEL
- pKd (HLA-A*02:01): 6.84
- pKd (HLA-A*02:02): 8.15
- pKd (HLA-A*02:06): 8.15
- pKd (HLA-A*02:03): 6.51
- pKd (HLA-A*68:02): ≤ 5.00

Sequence: LPRRSGAAGA
- pKd (HLA-B*54:01): 7.33
- pKd (HLA-B*51:01): ≤ 5.00
- pKd (HLA-B*35:01): ≤ 5.00
- pKd (HLA-B*53:01): ≤ 5.00

Sequence: SVQRNLPFER
- pKd (HLA-A*03:01): ≤ 5.00
- pKd (HLA-A*11:01): 6.39
- pKd (HLA-A*33:01): 6.49
- pKd (HLA-A*31:01): 6.98
- pKd (HLA-A*68:01): 7.72

Sequence: KFLPDLYDYK
- pKd (HLA-A*03:01): 6.59
- pKd (HLA-A*11:01): 7.66
- pKd (HLA-A*33:01): ≤ 5.00
- pKd (HLA-A*31:01): 5.62
- pKd (HLA-A*68:01): 6.29

Sequence: VLRGFLILGK
- pKd (HLA-A*03:01): 8.00
- pKd (HLA-A*11:01): 6.34
- pKd (HLA-A*33:01): ≤ 5.00
- pKd (HLA-A*31:01): 7.07
- pKd (HLA-A*68:01): 5.94

Sequence: FYRYGFVANF
- pKd (HLA-A*30:02): ≤ 5.00
- pKd (HLA-A*24:02): 7.77
- pKd (HLA-A*29:02): 6.09
- pKd (HLA-A*23:01): 7.89

Sequence: SFSFGGFTFK
- pKd (HLA-A*33:01): 7.07

Sequence: ASCMGLIYNR
- pKd (HLA-A*03:01): 6.09
- pKd (HLA-A*11:01): 7.49
- pKd (HLA-A*33:01): 6.35
- pKd (HLA-A*31:01): 8.15
- pKd (HLA-A*68:01): 6.41

Sequence: KSCLPACVY
- pKd (HLA-A*30:02): 7.37
- pKd (HLA-A*29:02): ≤ 5.00

Sequence: SVQPTFSVQR
- pKd (HLA-A*03:01): ≤ 5.00
- pKd (HLA-A*11:01): 7.43
- pKd (HLA-A*33:01): 6.74
- pKd (HLA-A*31:01): 7.68
- pKd (HLA-A*68:01): 7.08

Sequence: GERQNATEI
- pKd (HLA-B*44:02): ≤ 5.00
- pKd (HLA-B*44:03): ≤ 5.00
- pKd (HLA-B*18:01): ≤ 5.00
- pKd (HLA-B*40:02): 7.28
- pKd (HLA-B*40:01): 6.70
- pKd (HLA-B*45:01): 6.52

Sequence: TEVETYVLSI
- pKd (HLA-B*44:02): 5.16
- pKd (HLA-B*44:03): 6.61
- pKd (HLA-B*18:01): 6.87
- pKd (HLA-B*40:02): 6.71
- pKd (HLA-B*40:01): 6.88
- pKd (HLA-B*45:01): 6.30

Sequence: FQVDCFLWHV
- pKd (HLA-A*02:01): 8.40
- pKd (HLA-A*02:02): 8.40
- pKd (HLA-A*02:06): ≥ 9.00
- pKd (HLA-A*02:03): 8.52
- pKd (HLA-A*68:02): 6.66

Sequence: NMLSTVLGV
- pKd (HLA-A*02:02): 8.30
- pKd (HLA-A*02:06): 8.52
- pKd (HLA-A*02:03): 7.96
- pKd (HLA-A*68:02): 5.97

Sequence: YSHGTGTGY
- pKd (HLA-A*30:02): 6.88
- pKd (HLA-A*01:01): 6.70
- pKd (HLA-A*29:02): 6.31

Sequence: KLVGINMSKK
- pKd (HLA-A*03:01): 7.85
- pKd (HLA-A*11:01): 6.50
- pKd (HLA-A*33:01): ≤ 5.00
- pKd (HLA-A*31:01): 6.29
- pKd (HLA-A*68:01): 5.79

Sequence: FYIQMCTEL
- pKd (HLA-A*30:02): ≤ 5.00
- pKd (HLA-A*24:02): 7.62
- pKd (HLA-A*29:02): 5.81
- pKd (HLA-A*23:01): 8.10
